In paper PMC2195830:

Biological target: phospholipase C (PLC)-γ2 (chicken (endogenous in DT40))
Assay: co-IP

fold increase of the association in Cbl-deficient against wild-type DT40 cells: 3 fold
B1: phosphorylated B cell linker protein (BLNK), from BCR-stimulated DT40 cells (natural protein)
chain: MDKLNKLAVPAGEKFRKLQKMVHDIKKNESGIINKFKKFQNEQVALICKTGKDTWDRLKKKPPPSLPRRDYASEHADNEEEQWSDDFDSDYENPDGHSDSEMYVVPSEENPDDSYEPPPSEQEKKKIPSSFPISRGEYADNRTSHHQLPPINKPLPSTPSSALPRPKKPSLPSPAAKPKLPLKPRECSDDEDNYIVPVDNDDDNYIEPTESSTPPPAKPPVNRFMKPPAKSALPTPPKPSLASDMQEVYEVPEEEEELSPPPVTRFTKPLPATRAQNAEHSHMHSMTRESPKLDASRNILPLPRNRLHPKTDHEANNNDENHSFSNTQESKFPPGAAPSPLPRALKKTSNAVNPAKPCLPSRDTFTVNEDKPTAADRRRGSSHEFPLPPLPSGTPKSSLQKPLVLPKVPEAPSRALGTSPHSSISSISSTADQDAGVHSKAWYAATCDRKTAEDALYRSNKDGSFLIRKSSGQDSRQPYTLVVFYNRRVYNIPIRFIESTRQYALGREKCGEERFDSVAEIVENHQHTSLVLIDSQNNTKDSTKLKYIVRVS
modifications: phosphotyrosine (sites not defined in the paper)
